Experimental data from US6635429B1, “Heterodimeric nuclear receptors proteins, genes encoding same, and usage thereof” (Institut National de la Sante et de la Recherche Medicale, dated 1993).

Target: the molecule itself
Assay: cell-based or functional assay

B1: human RARα1 (a.a. 1 to 462) (receptor)
chain: MASNSSSCPTPGGGHLNGYPVPPYAFFFPPMLGGLSPPGALTTLQHQLPVSGYSTPSPATIETQSSSSEEIVPSPPSPPPLPRIYKPCFVCQDKSSGYHYGVSACEGCKGFFRRSIQKNMVYTCHRDKNCIINKVTRNRCQYCRLQKCFEVGMSKESVRNDRNKKKKEVPKPECSESYTLTPEVGELIEKVRKAHQETFPALCQLGKYTTNNSSEQRVSLDIDLWDKFSELSTKCIIKTVEFAKQLPGFTTLTIADQITLLKAACLDILILRICTRYTPEQDTMTFSDGLTLNRTQMHNAGFGPLTDLVFAFANQLLPLEMDDAETGLLSAICLICGDRQDLEQPDRVDMLQEPLLEALKVYVRKRRPSRPHMFPKMLMKITDLRSISAKGAERVITLKMEIPGSMPPLIQEMLENSEGLDTLSGQPGGGGRDGGGLAPPPGSCSPSLSPSSNRSSPATHSP
OMPdecase activity of the DR5-URA3 reporter in yeast: ~5 fold
